# Data: publication PMC2976518
# Several values for one entry are separate records, joined by “and”; a condition that tells them apart may be missing. Equal entries are not always repeated. Where two headings read alike, the source gives them in different places.
# Tests used:
# [1] = biological target: S9A/R54E/Q115R Sin (highly activated Sin mutant with the active site serine changed) (Staphylococcus aureus (plasmid pI9789)); assay: AUC
# [2] = biological target: S9A/R54E/Q115R Sin (highly activated Sin mutant with the active site serine changed) (Staphylococcus aureus (plasmid pI9789)); assay: AUC; remark: listed apart in the source
# [3] = biological target: I100T Sin (mildly activated Sin mutant) (Staphylococcus aureus (plasmid pI9789)); assay: AUC
# [4] = biological target: I100T Sin (mildly activated Sin mutant) (Staphylococcus aureus (plasmid pI9789)); assay: AUC; remark: listed apart in the source
# Sin I100T = Sin I100T (Staphylococcus aureus (plasmid pI9789), UniProt Q53757 1-202, I100T); assay: AUC sedimentation velocity
# Sin S9A/R54E/Q115R = Sin S9A/R54E/Q115R (Staphylococcus aureus (plasmid pI9789), UniProt Q53757 1-202, S9A;R54E;Q115R); assay: AUC sedimentation velocity and equilibrium
molecule,measurement,setting,value
S9A/R54E/Q115R Sin (highly activated Sin mutant with the active site serine changed) (enzyme),Kd,[1],400 nM
same,stoichiometry N,[1],2 and 4
same,Kd,[2],450 nM
I100T Sin (mildly activated Sin mutant) (enzyme),stoichiometry N,[3],2
same,stoichiometry N,[4],2
52-mer site I dsDNA (AUC) (dsDNA) DNA 1: GCCTAGTTCTTTGTGAAATTTGGGTATACCCTAATCATACAAGCTTGATCTG DNA 2: CAGATCAAGCTTGTATGATTAGGGTATACCCAAATTTCACAAAGAACTAGGC,binding result,Sin I100T,binds
same,binding result,Sin S9A/R54E/Q115R,binds
